Assay: label from the status in PepcDB records

Sequence | protein production
MANNARIEHTSSEGHEGDATCVAYFDGQLFSGGADGKIRIWSPELQLLATVNAHEAYIYCMAINQHGKVYSSSCDGQVHFMLPPYGDESVQELFRCDDAIQAMYCDGSVLYTGDDKGVVTTWTNDRMLFKYSLVEEVKSLAGEQNLIYTVRDLDVVVSQVAEGKSGKYSNKAVIPGKSPLHLLGPMVDGKRSYLAFPDRSGMGLQLVNNLSQQQYSKIWHLPDCHELIINALCGDETYLYSGGYDKKVKGWTDLEAGKPKALGEVEVGSCVNSICCGANDTVYIASSDGFIRSAKFV | failed
MSRQIFYMPFSLRFLFLLIIITIFGLGSLFLGVIVSAFMKIGFSAEDALLILFLSLLGSGINIPLTTLKSDIPVVKDNYIKFFGISYRIPTRQIVRNETLLAINVGGAVIPVLISAYLLTQFPSSLLLAGAGVAIVAIVTHSVARPIKGVGIATPALIPPLTSVLSAVLLTSIVHIPGCPAEPCRVIIAYTGGVLGTLIGADLLNLGKIKNLGAPVASIGGAGTFDGIFLSGFIALLLI | failed
MQSRFRSDRRLTVRMGVTLFLLGLLYVGFVAALIALLKSWVLVVVIVALVFGAQYWFSDRIALFAMRGRVVEREEYPELHGVVDRLAAMADMPKPVVAVSEMEMPNAFATGRNPDNAVVCVTTGLLRRLEPAELEGVLAHELSHVAHKDVAVITVASFLGVIAGLIVRFAFYSQLFGGRRDQNTLAVLAVVMGVSAAVYALSFLLIRALSRYRELAADRAAALLTGRPSALAAALTKVTGDIARIPTKDLRTAQAFNAFYFTPAFGSDPGLGRFFATHPSLEQRLDQLGRISTELGEAPAPGKA | failed
MPTFDHGNLSLGELELTVLYDEERYDIVEQTETVQVDLEGPRGVLTVFRFARPSYEVFVDLTEAGEGSHTVDVEHRGFPGDLAVTVEPRMARVQLEERQTVSVPVTVEMINLEHHHHHH | not failed
VLTPRHIATLFTKLIPFKKNDKILDLCCGTGAFLIAGMNKLLSLKGIDAQNVKSNQLLGFEINPTMYICAISNMLFRGDGKSKIYNMDSINDDKVNKIISESAPTIGFINPPYSGKENKEDPTPKEITFLKKC | failed
MSTRPERERASTSTDAVLQATVALSAGHKPAFRGFVKDPPRARAHAAAMFVSNAREAEPFVAPDLSEIRVLVDRATVGVASVSLAHATVAAGAETVWHRLQATDEIYFVLSGRGLVSVGDESGEVGPGDAVWIPAGVPQKIRALGSVPLTFLCAWGPAYLPERDQRMGEAAVIGAWPLEHHHHHH | not failed
MDAEAAKMIGAGLAAIGMIGSGIGVGNIWANLIATVGRNPAAKSTVELYGWIGFAVTEAIALFALVVALILLFAA | failed
MVGADLLCGSAWVPALWLNLCNLGVVVTLWQLLSRLPRMHRRMRSPHGVLSVFAACAAAAMVAASMAAVMAAPWFEQSLRATWLAWFSEQFSTGVLVLPVLLTAPSVRALVRGGAQPIRLAPLLVLLASLAFSIAFGGPGAIAFPIAALLWCAWTYSPFLVSLLTLTAGSTLIVAVAQNLMHFSVPQSEPGVTTLMSARLGIAMLVLGPLVVACVSQANRSLMARLAHQATVDHLTGVLTRSAFTRRANALLESRQQHAQALPLTLMMLDIDHFKSINDAHGHAVGDQVLRQFASTLQDQLHNDELIARLGGEEFVVILPGLAPERANFTAERLRRAIQDLHVTQADQRLQITVSIGVAGCDADMPAPSLDELLASADQALYRAKARGRNRVEQAEAQRLVI | failed
MFCTLAGYRWLNSGSLLRRLSQRAVRRLPTAPLCHLHNGATESAASNGALRIVDEKVAYRRYATVFERTVQYPDGRHVTYDILGQPAVQSASVLVFPFDTQSKTCYVIREYCPGPNRVLYGFPAGMVETKHESLEAAARAELSEEAHLRCAQLIDLTAQAAVWERSFEVPNTASDAENCLRGFFADKYSRNVCKMYLALNPEPDGHPGSMDAEELIEQVGAVRVPQLEAWLWSGQMTMPHMLLAMCALTYLRQRGMLT | failed
MNGSNHMKNKTLVISGATRGIGKAIFVRFAQSGVNIAFTYNKNVEEANKIIEDVEQKYSIKAKAYSLNVLEPEQYTELFKQIDADFDRVDFFISNAIIYGRSVVGGFAPFMRLKPKGLNNIYTATVLAFVVGAQEAAKRMQKIGGGAIVSLSSTGNLVYMPNYAGHGNSKNAVETMVKYAAVDLGEFNIRVNAVSGGPIDTDALKAFPDYVEIKEKVEEQSPLKRMGNPNDLAGAAYFLCDETQSGWLTGQTIVVDGGTTFK | failed
MSDIELLETLAGTDQPRVMATIIHVEGSSYRKEGAMMLFQEDGTQVGLLSGGCLETDLTIKAQKVWQEQLPRTVVYDLSSEDDLSWGQGSGCNGTISVLLEPVDLKLRQHLKRVYDYLCAGKSVFHVKKLSTSGAVLEYAFILDESVYFGEWHSGHPVEWIRKIDENEEPLMFTHIYSPKERLIIFGAGPDVPPLVTFASNVGFYTVVTDWRPNQCEKHFFPDADEIIVDFPADFLRKFLIRPDDFVLIMTHHFQKDQEILHFLLEKELRYIGILGSKERTRRLLQNRKPPDHLYSPVGLSIDAQGPEEIAISIVAQLIQLIRSRKQASSPFSYLFQPESCKH | not failed
MSGQADTATTAEARTPAHAAHHLVEGVARVLTKPRFRGWIHVYSAGTAVLAGASLVAVSWAVGSAKAGLTTLAYTAATITMFTVSATYHRVNWKSATARNWMKRADHSMIFVFIAGSYTPFALLALPAHDGRVVLSIVWGGAIAGILLKMCWPAAPRSVGVPLYLLLGWVAVWYTATILHNAGVTALVLLFVGGALYSIGGILYAVRWPDPWPTTFGYHEFFHACTAVAAICHYIAMWFVVF | failed
MSGTLFTYRRKVDFGDCDSARIYFTPRAVDYAVEAVEAWFGDVLGVSWADLFLRHDLDVTFVRMGCEYFRPVIADQTVHVRVRATAVDRSSVTFSAAGEDDSGGVFFRATLVAQFRAGRNRAPVPIPPRYRERMEDCLEQADGKSGTVAQRVGGEPFLSRLQSDGVHFTVRRRVVYGDCTLSGTVYAPRLFNYAVEAVGEWYRETLGISWREQCIRLRGAPFREVWCERLAPLVPGQVITMTVGIPRLGKSSIGYEVVGYDDRGEPCFQVGMSACYISEETGSIKAIPFPDDMRSRILAYQVLCDQGVIPATAS | failed
MSPARARLTAPIVLLMSVATGLAVASNYYAQPLLHTIGAEFALTTATAGAIVTVAQLSYAVGLILLVPLGDLYERRTLIALMTALSAVGLLLSAFSPGIGWLMLGTAVTGLLSVVAQVLVPFAATLAEPHERGKVVGAVMSGLLLGILLARTIAGALADLGSWRTVYWVAAILMLLMSMALWRVLPRSVNPTRLSYPRLLASIVQLYAQEPLLRARSVLGALLFAAFSMLWTPLTFLLSGPNYGYSNTTIGLFGLAGAIGAYGANRFGRLNDRGQGNRSTRQGLLLLASWPLLAWGAHHVAPLLAGVLALDLAIQAVHVTNQSAIYRLRPEARSRLTAGYMTSYFLGGAAGSLLSAWIYAHAGWLGVTAAGALTSLAALLYGCLARSARIPETTPAPAIA | failed
MRCANCGNELKAGSLYCDVCGHPVQIVPDYNEFDDYLDNLVGNDDRRTDGQKTAKPVSDRTIRFDDPVREQLHSAGQWNGQKTDRMSQSVKQQVRQAQTGEQQSQTKQPCEKPQSDGQRAKRAQQKKIIIISAVVCAVAIVILIAAITRNVSRSHDNSFDYQVKQAKAAYSAGNINSAVSYYEKALSIDSDNTDVRFALADIYMSKKDYDAALVLYQEIINIDPKSKEAYKQLISIYESKKDYDAIVALRESAKDASVLKLFADYTVSKPQFSKSSGKYGETMELSIDADSDTKIYYSYDSDDPLTRGERYYSPITLDKEGTYEITAVAVDDRGIKSEVASAKYEIEFEAPDAPEIDPDGGTFGAQTDITITVPENCKVYYTWDSSDPSAASTEYTAPIPVPEGNNVLSVIAIDQNTGKCSDIYRSRFEFYMN | failed
MSLTASYETIKARLDGTVLSATFNAPPMNLIGPEVVRDLVALLEELAHPTAPRVVIFDSADADFFFPHVDMTKVPEYTAEAAKAGGPGDASLGMLFRKLSQLPAVTIAKLRGRARGAGSEFLLACDMRFASRENAILGQPEVGIGAPPGAGAIQHLTRLLGRGRALEAVLTSSDFDADLAERYGWVNRAVPDAELDEFVAGIAARMSGFPRDALIAAKSAINAISLPAPAEVRADAALFQQLVRGEKVQQRTAELFKQGFQTRGATELDLGDALGHLKAVDEGHHHHHH | not failed
MSSSSPSGSGSDLTERRGIPAAKFIQDVETYLSQSGLDPNSALAFHQERLQQYKVVEMKLLAQQRDLQAKIPDIEKCLEVVATLEAKKGTGEALLADFEVSEGIYSRACIEDTDSVCLWLGANVMLEYSCEEASALLKNNLENAKASLEVLVADLQFLRDQVTVTQVTIARVYNWDVHQRRVKQVTPTAIAVADS | failed
MSIPLLEYAPSSQNQRVEGYEVPNEDTPTIYRLAAAIDDADVDAIIWAGYRQIFSEHLIIKSNRQSFLESQLRNRAINVRDFIRGLGKSEVYRTQVADLNSNYRLVDITLKRFLGRAAYNQDEEIAWSIVIGSQGLHGFIDALLDSDEYRENFGDDIVPYQRRRYKDRPFNLVNPRYNAYWRDRQTLNALGGRSFYSARTSGTLTKDDIRRAIPANFMALAGKILTPERNYQRTIASVTSQIKDIKIPDTSREVTTPEVTVKPVAVALPYRYIPGNKTT | failed
KGKSFIWIKRQLDPKVAEEVKALGLENFVFEKELKRHYPMGNLFAHVIGFTDIDGKGQEGLELSLEDSLYGEDGAEVVLRDRQGNIVDSLDSPRNKAPQNGKDIILSLD | failed
MNHWSMPPNPEKALMLAQRAVAVFVYDAVRLEGINFTLPEVQTLLQGVTVGGHRLSDQQIAVNQGEAWKLLFQMIRDGRFELTPDCAMALHGVAAKEEALEWGCFRSGSVLIAGTEYEPPAASELPTRFDRMIDELQHMDDVHDQAVHLFLTMARCQFFYDVNKRMGRFMMNGHLLSNGYPAINIPASSQLEFNELMLRFYDSGDQREMNAFVRSCMDERVVLIMKEELEHHHHHH | failed
MFALPQAGDRRGEIIKVLLSNGWDYMNGLLTLGKVGEPQIPTPEVLTKILVELGPFYIKLGQLLSTRPDLLPPRYINALTALQSNVPPLPWSAIEDLLQREFPQPLGETFQEIESEPIAAGSIGQIHRAVLQSGETVAIKVKRPGIDVIVEQDSLLIKDVAELLALTEFGQNYDIVKLADEFTQTVKAELNFDTEAAYTNNLRTNLAKTTWFDPNQLVIPKVYWELTNQKFLVLEWLDGVPILTADLTQPPSDKDIAEKKKEITTLLFRAFFQQLYVDGFFHADPHPGNIFYLADGRLALIDCGMVGRLDPRTRQLLTEMLLAIVDLDAKRCAQLTVELSESVGRVNFQRLEVDYERMLRKYYDLSLSEFNFSEVVYEFLRIARVNKLKVPACLGLYAKCLANLEGAG | failed
MGSSHHHHHHSSGLVPRGSHMFKLTPAAAEQVLKAAKQGGTEGMCLRLAAGRNPDGSIDYRMGFDDLTEDDIRLTSEGVEIVIAPDYVSLLDQTTLDYVELEPGQFHFIFLNPRDPTYRPPSGG | not failed
MESYSQRQDHELQALEAIYGSDFQDLRPDARGRVREPPEINLVLYPQGLAGEEVYVQVELRVKCPPTYPDVVPEIDLKNAKGLSNESVNLLKSHLEELAKKQCGEVMIFELAHHVQSFLSEHNK | not failed

— a protein production outcome set (Wang et al. 2014)
